Data set [1] deals with T1, quinone oxidoreductase (QorA) (Escherichia coli, UniProt P28304).
T1 construct: full-length ORF from ASKA library (pCA24N), N-terminal His-tag, expressed in E. coli BL21-Gold (DE3), IMAC and size exclusion
T1 sequence (P28304 1-327): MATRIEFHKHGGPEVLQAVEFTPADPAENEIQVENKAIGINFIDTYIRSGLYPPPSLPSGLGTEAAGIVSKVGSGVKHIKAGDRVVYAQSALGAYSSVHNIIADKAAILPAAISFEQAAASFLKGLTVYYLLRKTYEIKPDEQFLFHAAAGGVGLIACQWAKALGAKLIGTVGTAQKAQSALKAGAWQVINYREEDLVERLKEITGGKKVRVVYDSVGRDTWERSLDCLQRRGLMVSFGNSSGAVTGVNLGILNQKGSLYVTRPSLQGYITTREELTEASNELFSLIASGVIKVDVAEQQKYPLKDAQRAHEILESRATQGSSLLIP
As to the kind of experiment: NMR shift experiment; also competition with RNA in EMSA and MST. Format: binding. Particulars: 10-20 mM NADPH in the EMSA / MST competition with yffO mRNA fragment; pH 7.5. In general terms: Mobility shift assays separate free from complexed probe on a gel.

The target of data set [2] is T2, Quinone oxidoreductase QorA (Escherichia coli K12, UniProt P28304 1-327).
T2 sequence: T1 sequence (P28304 1-327)
As to the kind of experiment: EMSA; 350 nM RNA; 50 mM Tris (HEPES for PykF), 80 mM NaCl, 10 mM KCl, 0.8 mM MgCl2, 0.5 mM DTT, pH 7.5, 30 min at 37 C (EMSA); MST same buffer + 0.05% Tween-20. Particulars: protein: recombinant; tags: N-terminal His (pCA24N, ASKA); label: 5' 32P.

Data set [3] concerns the target T2, Quinone oxidoreductase QorA. The experiment in a line: MST; 0.05% Tween-20; 10 nM RNA; 50 mM Tris (HEPES for PykF), 80 mM NaCl, 10 mM KCl, 0.8 mM MgCl2, 0.5 mM DTT, pH 7.5, 30 min at 37 C (EMSA); MST same buffer + 0.05% Tween-20. Particulars: protein: recombinant; tags: N-terminal His (pCA24N, ASKA); label: Cy5.
For the next data set, the target named is MS2 phage coat protein (bacteriophage MS2, UniProt P03612 2-130). The experiment in a line: EMSA; 0.34-34 uM protein, 700 nM RNA; 50 mM Tris (HEPES for PykF), 80 mM NaCl, 10 mM KCl, 0.8 mM MgCl2, 0.5 mM DTT, pH 7.5, 30 min at 37 C (EMSA); MST same buffer + 0.05% Tween-20. Particulars: protein: recombinant; chain copies: 2; label: 5' 32P; hairpin.
Sequence of MS2 phage coat protein (P03612 2-130): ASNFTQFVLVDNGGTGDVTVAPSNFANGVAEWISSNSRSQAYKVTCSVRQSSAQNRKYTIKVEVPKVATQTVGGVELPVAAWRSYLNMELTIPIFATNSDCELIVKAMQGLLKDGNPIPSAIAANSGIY
Data set [4] deals with T3, Phosphoglycerate kinase Pgk (Escherichia coli K12, UniProt P0A799 1-387).
T3 sequence: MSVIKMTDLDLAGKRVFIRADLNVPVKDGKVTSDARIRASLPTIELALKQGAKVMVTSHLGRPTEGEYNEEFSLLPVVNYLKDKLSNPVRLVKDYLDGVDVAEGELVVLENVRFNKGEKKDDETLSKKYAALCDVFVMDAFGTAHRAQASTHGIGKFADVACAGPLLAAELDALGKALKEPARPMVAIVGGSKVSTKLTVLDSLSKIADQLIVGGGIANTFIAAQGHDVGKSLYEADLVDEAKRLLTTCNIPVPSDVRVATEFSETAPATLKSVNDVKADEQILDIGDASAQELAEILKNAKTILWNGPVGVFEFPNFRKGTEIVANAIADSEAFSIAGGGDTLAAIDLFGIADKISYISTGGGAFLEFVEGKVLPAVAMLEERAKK
As to the kind of experiment: EMSA; 30 uM Pgk, 7 uM RNA; stronger than hairpins; 50 mM Tris (HEPES for PykF), 80 mM NaCl, 10 mM KCl, 0.8 mM MgCl2, 0.5 mM DTT, pH 7.5, 30 min at 37 C (EMSA); MST same buffer + 0.05% Tween-20. Particulars: protein: recombinant; tags: N-terminal His (pCA24N, ASKA); label: 5' 32P; linear.

One may read the Kd as a measure of binding affinity in units of concentration.

As to `NC(=O)C1=CN([C@@H]2O[C@H](COP(=O)(O)OP(=O)(O)OC[C@H]3O[C@@H](n4cnc5c(N)ncnc54)[C@H](OP(=O)(O)O)[C@@H]3O)[C@@H](O)[C@H]2O)C=CC1` [NADPH], the “NMR shift experiment; also competition with RNA in EMSA and MST” value in data set [1] is listed as “NMR shift experiments that revealed larger peak shifts for the QorA-NADPH complex”. With GGAGCAUAUGGACUUCAGGGAAGGGAU (ssRNA) [yffO mRNA fragment, 27 nt], in data set [2], the Kd is approximately 7 µM.

As for GGAGCAUAUGGACUUCAGGGAAGGGAU (ssRNA) [Cy5-yffO mRNA fragment], in data set [3], the Kd is approximately 7 µM. Regarding GCACGCGUAUUCACUGAGCAUCAGCCAGACUGUGU (ssRNA) [rffG mRNA fragment], the binding result with MS2 phage coat protein is on record as “binds”. Consider AGGACAAAAACAA (ssRNA) [A-rich linear control RNA], for which the binding result in data set [4] is on record as “binds”.

These data come from article PMC10380284, “Investigating the Prevalence of RNA-Binding Metabolic Enzymes in E. coli” (International Journal of Molecular Sciences, 2023).
